Laboratory results as given in patent publication US20220372463A1.

Target: Streptococcus pyogenes Cas9 endonuclease (Streptococcus pyogenes) (UniProt Q99ZW2)
Assay: cell-based or functional assay

Substance | fold decrease of the transition rate to the inhibited state relative to CascAID with wild-type AcrIIA4 [fold] | kact (constant activation parameter for all CascAID variants; best fit of the ODE model to editing data) [h⁻¹] | γ4 (inhibitor strength: fold-change relative to the inhibition rate of CascAID wt; best fit of the ODE model) [unitless] | γ3 (inhibitor strength: fold-change relative to the inhibition rate of CascAID wt; best fit of the ODE model) [unitless] | kinh, CascAID (inhibition parameter for CascAID wt; best fit of the ODE model to editing data; marked not identifiable) [h⁻¹]
AcrIIA4 D14A/G38A as the auto-inhibitory domain of CascAID D14A/G38A | 19 | 1.13 | 0.0519 |  | 
AcrIIA4 N39A as the auto-inhibitory domain of CascAID N39A | 16 | 1.13 |  | 0.0609 | 
wild-type AcrIIA4 as the auto-inhibitory domain of CascAID wt (Cas9 fused to wild-type AcrIIA4) |  | 1.13 |  |  | 618
